# In paper PMC5815190:
# Molecular target: human toll-like receptor 5 (hTLR5) on HEK-Blue-hTLR5 cells (human) (UniProt O60602)
# Sequence of UniProt O60602 (O60602 21-858): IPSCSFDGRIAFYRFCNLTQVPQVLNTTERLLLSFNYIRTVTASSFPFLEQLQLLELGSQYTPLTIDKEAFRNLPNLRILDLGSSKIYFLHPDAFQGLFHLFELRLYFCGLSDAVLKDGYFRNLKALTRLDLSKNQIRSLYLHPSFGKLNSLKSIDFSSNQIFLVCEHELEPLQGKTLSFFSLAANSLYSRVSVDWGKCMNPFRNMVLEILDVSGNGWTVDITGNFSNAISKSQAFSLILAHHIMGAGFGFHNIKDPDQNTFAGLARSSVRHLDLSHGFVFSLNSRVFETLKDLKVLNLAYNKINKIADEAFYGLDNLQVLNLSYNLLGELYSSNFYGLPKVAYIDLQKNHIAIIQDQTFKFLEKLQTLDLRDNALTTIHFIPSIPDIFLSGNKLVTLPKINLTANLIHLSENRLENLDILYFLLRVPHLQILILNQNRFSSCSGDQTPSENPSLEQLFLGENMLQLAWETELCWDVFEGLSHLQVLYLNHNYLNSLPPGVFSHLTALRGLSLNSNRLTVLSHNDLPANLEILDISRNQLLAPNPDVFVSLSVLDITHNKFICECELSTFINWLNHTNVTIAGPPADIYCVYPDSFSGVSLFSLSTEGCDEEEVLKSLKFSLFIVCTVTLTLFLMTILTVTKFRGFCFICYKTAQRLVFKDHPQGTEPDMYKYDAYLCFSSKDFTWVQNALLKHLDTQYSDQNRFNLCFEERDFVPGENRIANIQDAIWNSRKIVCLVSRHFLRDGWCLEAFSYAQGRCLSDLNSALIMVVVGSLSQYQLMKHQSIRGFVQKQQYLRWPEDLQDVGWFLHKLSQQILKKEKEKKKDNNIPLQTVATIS
substance,measurement,value
Lawsonia intracellularis putative flagellin LI0570 (LFliC) (natural protein),"IL-8 mRNA level (RT-PCR, 2^-ddCt) in HEK-Blue-hTLR5 cells treated with 10 and 100 ng/mL LFliC for 24 h",590 fold
